In patent publication US20060015973, “Environmental stress-tolerant plants” (Independent Admin. Institute, Japan International Research …, published 2006):

Key:
[1] = biological target: T1, GST-DREB2A (fragment encoded by cDNA nt 167-666) (Arabidopsis thaliana, UniProt O82132 SEQ:1-166); assay: EMSA; room temperature 20 min; 6% gel 0.25x TBE; details: tags: N-terminal GST (pGEX-4T-1), E. coli JM109; label: 32P
Procedure: (§1) E. coli in which the fusion protein had been induced was suspended in 13 ml of buffer (10 mM Tris-HCl, 0.1 mM DTT, 0.1 mM phenylmethylsulfonyl fluoride). Then, 1% Triton X-100 and 1 mM EDTA were added thereto. After the cells were disrupted by sonication, the disrupted material was centrifuged at 22,000×g for 20 min. Then, the fusion protein of DREB1A (or DREB2A) and GST was purified by affinity chromatography using glutathione-Sepharose (Pharmacia) as a carrier. The resultant fusion protein was incubated with the DRE-containing 71 bp DNA fragment probe prepared by PCR and radiolabelled with ³²P at room temperature for 20 min. This mixture was electrophoresed using 6% acryl amide gel containing 0.25× Tris-borate-EDTA at 100 V for 2 hr. […] As is clear from this Figure, a band which migrated behind was detected when the fusion protein was incubated with the DRE-containing 71 bp DNA fragment probe (SEQ ID NO: 18). When a DNA fragment containing a varied DRE sequence (SEQ ID NO: 19, 20 or 21) was used, such a band was not detected. On the other hand, when a DNA fragment which was partly varied outside of DRE sequence (SEQ ID NO: 22 or 23) was used as a probe, a behind band was detected. Thus, it was shown that DREB1A or DREB2A protein specifically bound to DRE sequence.

[2] = biological target: T2, GST-DREB1A (fragment encoded by cDNA nt 119-547) (Arabidopsis thaliana, UniProt Q9M0L0 SEQ:1-143); assay: EMSA; room temperature 20 min; 6% gel 0.25x TBE; details: tags: N-terminal GST (pGEX-4T-1), E. coli JM109; label: 32P
T2 sequence (Q9M0L0 1-143): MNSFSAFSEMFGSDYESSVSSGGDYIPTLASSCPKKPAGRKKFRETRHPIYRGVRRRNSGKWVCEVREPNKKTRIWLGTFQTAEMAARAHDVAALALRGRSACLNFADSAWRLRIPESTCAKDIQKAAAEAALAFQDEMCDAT
Procedure: as §1

[3] = biological target: T1, GST-DREB2A (fragment encoded by cDNA nt …); assay: EMSA; shifted band; details: tags: N-terminal GST (pGEX-4T-1), E. coli JM109; label: 32P
Procedure: as §1

[4] = biological target: T2, GST-DREB1A (fragment encoded by cDNA nt …); assay: EMSA; shifted band; details: tags: N-terminal GST (pGEX-4T-1), E. coli JM109; label: 32P
Procedure: as §1

[5] = biological target: T1, GST-DREB2A (fragment encoded by cDNA nt …); assay: EMSA; no shifted band; details: tags: N-terminal GST (pGEX-4T-1), E. coli JM109; label: 32P
Procedure: as §1

[6] = biological target: T2, GST-DREB1A (fragment encoded by cDNA nt …); assay: EMSA; no shifted band; details: tags: N-terminal GST (pGEX-4T-1), E. coli JM109; label: 32P
Procedure: as §1

[7] = biological target: DREB2A delta136-165 (constitutive active form) (Arabidopsis thaliana, UniProt O82132 SEQ:1-335, del136-165); assay: cell_activity; GUS transactivation vs basal, T87 protoplasts; >3x full length
DREB2A delta136-165 (constitutive active form), sequence (O82132 other isoform, or with tags, fused parts or gaps del136-165 | mutant): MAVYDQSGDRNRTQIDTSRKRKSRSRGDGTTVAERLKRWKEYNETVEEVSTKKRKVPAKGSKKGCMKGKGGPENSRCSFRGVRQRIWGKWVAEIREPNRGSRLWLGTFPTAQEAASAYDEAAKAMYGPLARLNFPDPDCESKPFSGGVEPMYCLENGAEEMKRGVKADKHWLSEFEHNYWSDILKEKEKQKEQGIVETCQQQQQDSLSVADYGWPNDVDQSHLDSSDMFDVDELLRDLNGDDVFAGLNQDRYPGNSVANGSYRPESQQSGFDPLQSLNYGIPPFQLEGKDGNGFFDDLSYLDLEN
Procedure: Isolation of Arabidopsis T87 cell protoplasts and polyethylene glycol-mediated DNA transfection were performed as described previously (Abel and Theologis, 1994 Plant J. 5, 421-427). Five-day-old Arabidopsis T87 suspension cultured cells were collected by filtration and washed with water. Five grams of T87 cells were incubated with enzyme solution (0.4M mannitol, 5 mM MES-KOH (pH 5.7), 8 mM CaCl₂, 1% [w/v] Cellulase ONOZUKA R10 (Yakult), 0.5% [w/v] Macerozyme R10 (Yakult)) at room temperature for 2 hours with gentle agitation. Cells were passed through 125 μm nylon mesh, recovered by centrifugation at 450 g for 5 minutes at room temperature and washed twice in 30 ml of […], 70 mM CaCl₂, and 5 mM MES-KOH (pH 5.7). Finally protoplasts were resuspended in MaMg solution (0.4 M mannitol, 15 mM MgCl₂, 5 mM MES-KOH (pH 5.7)) and concentration was adjusted to 3×10⁶ cell/ml. The isolated protoplasts were kept on ice until use. Plasmid DNAs used for protoplast transformation were prepared by using a QINGEN plasmid isolation kit (QIAGEN) and dissolved in 10 mM Tris-HCl (pH 8.0), and 1 mM EDTA at 1 μg/μL. One hundred μL of protoplast suspension was mixed well with 10 μL of effector plasmid, 10 μL of reporter plasmid and 5 μL of 35S:Luciferase internal control plasmid. […]

T1 sequence (O82132 1-166): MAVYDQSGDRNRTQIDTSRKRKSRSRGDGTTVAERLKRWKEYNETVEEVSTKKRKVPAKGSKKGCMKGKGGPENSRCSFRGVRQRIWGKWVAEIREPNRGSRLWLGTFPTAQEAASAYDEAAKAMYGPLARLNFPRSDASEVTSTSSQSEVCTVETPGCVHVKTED

B1: rd29A promoter 71 bp DRE probe (wild type) (dsDNA)
DNA 1: CAGTTTGAAAGAAAAGGGAAAAAAAGAAAAAATAAATAAAAGATATACTACCGACATGAGTTCCAAAAAGC
DNA 2: GCTTTTTGGAACTCATGTCGGTAGTATATCTTTTATTTATTTTTTCTTTTTTTCCCTTTTCTTTCAAACTG
Q: Does B1 bind [1]?
A: Result: binds

Q: Does B1 bind [2]?
A: Result: binds

B2: 71 bp probe, mutated outside DRE (SEQ 23) (dsDNA)
DNA 1: CAGTTTGAAAGAAAAGGGAAAAAAAGAAAAAATAAATAAAAGATATACTACCGACATGAGTTCGGTTAAGC
DNA 2: GCTTAACCGAACTCATGTCGGTAGTATATCTTTTATTTATTTTTTCTTTTTTTCCCTTTTCTTTCAAACTG
Q: Does B2 bind [3]?
A: Result: binds

Q: Does B2 bind [4]?
A: Result: binds

B3: 71 bp probe, DRE mutant (SEQ 19) (dsDNA)
DNA 1: CAGTTTGAAAGAAAAGGGAAAAAAAGAAAAAATAAATAAAAGATATATTTTCGACATGAGTTCCAAAAAGC
DNA 2: GCTTTTTGGAACTCATGTCGAAAATATATCTTTTATTTATTTTTTCTTTTTTTCCCTTTTCTTTCAAACTG
Q: Does B3 bind [5]?
A: Result: no binding

Q: Does B3 bind [6]?
A: Result: no binding

B4: 71 bp probe, DRE mutant (SEQ 21) (dsDNA)
DNA 1: CAGTTTGAAAGAAAAGGGAAAAAAAGAAAAAATAAATAAAAGATATACTACCGACAAAAGTTCCAAAAAGC
DNA 2: GCTTTTTGGAACTTTTGTCGGTAGTATATCTTTTATTTATTTTTTCTTTTTTTCCCTTTTCTTTCAAACTG
Q: Does B4 bind [5]?
A: Result: no binding

Q: Does B4 bind [6]?
A: Result: no binding

B5: 71 bp probe, DRE mutant (SEQ 20) (dsDNA)
DNA 1: CAGTTTGAAAGAAAAGGGAAAAAAAGAAAAAATAAATAAAAGATATACTACTTTTATGAGTTCCAAAAAGC
DNA 2: GCTTTTTGGAACTCATAAAAGTAGTATATCTTTTATTTATTTTTTCTTTTTTTCCCTTTTCTTTCAAACTG
Q: Does B5 bind [5]?
A: Result: no binding

Q: Does B5 bind [6]?
A: Result: no binding

B6: DRE-containing 71 bp rd29A region in GUS reporter (3 tandem copies) (dsDNA)
DNA 1: CAGTTTGAAAGAAAAGGGAAAAAAAGAAAAAATAAATAAAAGATATACTACCGACATGAGTTCCAAAAAGC
DNA 2: GCTTTTTGGAACTCATGTCGGTAGTATATCTTTTATTTATTTTTTCTTTTTTTCCCTTTTCTTTCAAACTG
Q: With B6 as the binder, how does the activity [7] read?
A: Its activity is > 30 fold.

B7: 71 bp probe, mutated outside DRE (SEQ 22) (dsDNA)
DNA 1: CAGTTTGAAAGAAAAGGGAAAAAAAGAAAAAATAAATAAAAGATATACTACCGACATGATCAACAAAAAGC
DNA 2: GCTTTTTGTTGATCATGTCGGTAGTATATCTTTTATTTATTTTTTCTTTTTTTCCCTTTTCTTTCAAACTG
Q: Does B7 bind [3]?
A: Result: binds

Q: Does B7 bind [4]?
A: Result: binds
